First the molecules themselves.
B1: Nucleolar transcription factor 1, residues 408 to 469; numbered along this chain, P17480 (parent)
chain: KRPVSAMFIFSEEKRRQLQEERPELSESELTRLLARMWNDLSEKKKAKYKAREAALKAQSER

± gives the uncertainty stated by the source.

The variants in the series derive from B1. The series can be described thus: abundance fitness (aPCA) (normalised: wild type 0, dead -1); higher = more abundant; growth selection in yeast, the domain comes from the species named. The settings on record: Homo sapiens.
Regarding KRPVSAMFIFSEEKRRQLQPERPELSESELTRLLARMWNDLSEKKKAKYKAREAALKAQSER [E20P], the abundance fitness was -0.295 ± 0.065.

KRPVSAMFIFSEEKRRQLQWERPELSESELTRLLARMWNDLSEKKKAKYKAREAALKAQSER [E20W]: the abundance fitness was -0.152 ± 0.051. The same measure for KRPVSAMFIFSEEKRRQLQETRPELSESELTRLLARMWNDLSEKKKAKYKAREAALKAQSER [E21T]: 0.02 ± 0.066; for KRPVSAMFIFSEEKRRQLQEHRPELSESELTRLLARMWNDLSEKKKAKYKAREAALKAQSER [E21H]: -0.163 ± 0.12. For KRPVSAMFIFSEEKRRQLQEDRPELSESELTRLLARMWNDLSEKKKAKYKAREAALKAQSER [E21D] the value was -0.126 ± 0.12; for KRPVSAMFIFSEEKRRQLQEARPELSESELTRLLARMWNDLSEKKKAKYKAREAALKAQSER [E21A], -0.099 ± 0.072.

As to KRPVSAMFIFSEEKRRQLQEMRPELSESELTRLLARMWNDLSEKKKAKYKAREAALKAQSER [E21M], the abundance fitness is -0.073 ± 0.063. KRPVSAMFIFSEEKRRQLQEKRPELSESELTRLLARMWNDLSEKKKAKYKAREAALKAQSER [E21K]: the abundance fitness was -0.065 ± 0.075. For KRPVSAMFIFSEEKRRQLQEYRPELSESELTRLLARMWNDLSEKKKAKYKAREAALKAQSER [E21Y] the value was -0.276 ± 0.1; for KRPVSAMFIFSEEKRRQLQEIRPELSESELTRLLARMWNDLSEKKKAKYKAREAALKAQSER [E21I], -0.111 ± 0.18; for KRPVSAMFIFSEEKRRQLQEVRPELSESELTRLLARMWNDLSEKKKAKYKAREAALKAQSER [E21V], -0.1 ± 0.056. Consider KRPVSAMFIFSEEKRRQLQERRPELSESELTRLLARMWNDLSEKKKAKYKAREAALKAQSER [E21R], for which the abundance fitness was -0.086 ± 0.044.

As for KRPVSAMFIFSEEKRRQLQEPRPELSESELTRLLARMWNDLSEKKKAKYKAREAALKAQSER [E21P], the abundance fitness was -1.1 ± 0.15. KRPVSAMFIFSEEKRRQLQELRPELSESELTRLLARMWNDLSEKKKAKYKAREAALKAQSER [E21L]: the abundance fitness was -0.097 ± 0.041. Take KRPVSAMFIFSEEKRRQLQEQRPELSESELTRLLARMWNDLSEKKKAKYKAREAALKAQSER [E21Q]: the abundance fitness is -0.006 ± 0.076. On to KRPVSAMFIFSEEKRRQLQECRPELSESELTRLLARMWNDLSEKKKAKYKAREAALKAQSER [E21C], for which the abundance fitness is -0.076 ± 0.1.

With KRPVSAMFIFSEEKRRQLQEWRPELSESELTRLLARMWNDLSEKKKAKYKAREAALKAQSER [E21W], the abundance fitness was -0.189 ± 0.064.

Consider KRPVSAMFIFSEEKRRQLQEFRPELSESELTRLLARMWNDLSEKKKAKYKAREAALKAQSER [E21F], for which the abundance fitness is -0.238 ± 0.085. The same measure for KRPVSAMFIFSEEKRRQYQEERPELSESELTRLLARMWNDLSEKKKAKYKAREAALKAQSER [L18Y]: -0.063 ± 0.1; for KRPVSAMFIFSEEKRRQMQEERPELSESELTRLLARMWNDLSEKKKAKYKAREAALKAQSER [L18M]: -0.108 ± 0.058. For KRPVSAMFIFSEEKRRQEQEERPELSESELTRLLARMWNDLSEKKKAKYKAREAALKAQSER [L18E] the value was -0.664 ± 0.06. For the variant KRPVSAMFIFSEEKRRQHQEERPELSESELTRLLARMWNDLSEKKKAKYKAREAALKAQSER [L18H], the abundance fitness was -0.639 ± 0.12.

As for KRPVSAMFIFSEEKRRQAQEERPELSESELTRLLARMWNDLSEKKKAKYKAREAALKAQSER [L18A], the abundance fitness was -0.167 ± 0.052.

For KRPVSAMFIFSEEKRRQTQEERPELSESELTRLLARMWNDLSEKKKAKYKAREAALKAQSER [L18T], the abundance fitness is -0.092 ± 0.074. For KRPVSAMFIFSEEKRRQGQEERPELSESELTRLLARMWNDLSEKKKAKYKAREAALKAQSER [L18G] the value was -1 ± 0.055; for KRPVSAMFIFSEEKRRQDQEERPELSESELTRLLARMWNDLSEKKKAKYKAREAALKAQSER [L18D], -1.5 ± 0.23.

Regarding KRPVSAMFIFSEEKRRQQQEERPELSESELTRLLARMWNDLSEKKKAKYKAREAALKAQSER [L18Q], the abundance fitness is -0.531 ± 0.11.

For KRPVSAMFIFSEEKRRQCQEERPELSESELTRLLARMWNDLSEKKKAKYKAREAALKAQSER [L18C], the abundance fitness was -0.127 ± 0.055. In the case of KRPVSAMFIFSEEKRRQNQEERPELSESELTRLLARMWNDLSEKKKAKYKAREAALKAQSER [L18N], the abundance fitness is -0.98 ± 0.11.

Regarding KRPVSAMFIFSEEKRRQPQEERPELSESELTRLLARMWNDLSEKKKAKYKAREAALKAQSER [L18P], the abundance fitness was -1.37 ± 0.14. The same measure for KRPVSAMFIFSEEKRRQWQEERPELSESELTRLLARMWNDLSEKKKAKYKAREAALKAQSER [L18W]: -0.338 ± 0.047. KRPVSAMFIFSEEKRRQVQEERPELSESELTRLLARMWNDLSEKKKAKYKAREAALKAQSER [L18V]: the abundance fitness was -0.021 ± 0.041.

Regarding KRPVSAMFIFSEEKRRQFQEERPELSESELTRLLARMWNDLSEKKKAKYKAREAALKAQSER [L18F], the abundance fitness was -0.085 ± 0.13. For KRPVSAMFIFSEEKRRQRQEERPELSESELTRLLARMWNDLSEKKKAKYKAREAALKAQSER [L18R], the abundance fitness is -0.965 ± 0.052. KRPVSAMFIFSEEKRRQSQEERPELSESELTRLLARMWNDLSEKKKAKYKAREAALKAQSER [L18S]: the abundance fitness is -0.632 ± 0.058. On to KRPVSAMFIFSEEKRRYLQEERPELSESELTRLLARMWNDLSEKKKAKYKAREAALKAQSER [Q17Y], for which the abundance fitness is -0.145 ± 0.12. On to KRPVSAMFIFSEEKRRMLQEERPELSESELTRLLARMWNDLSEKKKAKYKAREAALKAQSER [Q17M], for which the abundance fitness is -0.028 ± 0.057. For KRPVSAMFIFSEEKRRNLQEERPELSESELTRLLARMWNDLSEKKKAKYKAREAALKAQSER [Q17N] the value was -0.078 ± 0.22; for KRPVSAMFIFSEEKRRRLQEERPELSESELTRLLARMWNDLSEKKKAKYKAREAALKAQSER [Q17R], -0.114 ± 0.051; for KRPVSAMFIFSEEKRRWLQEERPELSESELTRLLARMWNDLSEKKKAKYKAREAALKAQSER [Q17W], -0.106 ± 0.046. For the variant KRPVSAMFIFSEEKRRSLQEERPELSESELTRLLARMWNDLSEKKKAKYKAREAALKAQSER [Q17S], the abundance fitness was -0.016 ± 0.053. As for KRPVSAMFIFSEEKRRVLQEERPELSESELTRLLARMWNDLSEKKKAKYKAREAALKAQSER [Q17V], the abundance fitness was -0.018 ± 0.057. For the variant KRPVSAMFIFSEEKRRTLQEERPELSESELTRLLARMWNDLSEKKKAKYKAREAALKAQSER [Q17T], the abundance fitness was -0.026 ± 0.092.
